Substitutions are numbered along the chain they refer to. Numbers in names are those of the source.
T1: CX3CR1 (residues 1 to 315; I120L, L176C, C221S, M250V) as it stands in construct-2 (human, UniProt P49238 1-315, I120^3.43L | L176^ECL2C | C221^ICL3S | M250^6.54V)
T1 construct: CX3CR1, human, residues 1 to 315; Not a free protein: the receptor part of the fusion m2; Written alone for the pair CX3CL1 with CX3CR1; source: HighFive insect cells, part of the fusion construct-2, purified as complex (Strep-Tactin, SEC); not shown: Twin-Strep-tag, C-terminal, kept
T1 sequence (looked up): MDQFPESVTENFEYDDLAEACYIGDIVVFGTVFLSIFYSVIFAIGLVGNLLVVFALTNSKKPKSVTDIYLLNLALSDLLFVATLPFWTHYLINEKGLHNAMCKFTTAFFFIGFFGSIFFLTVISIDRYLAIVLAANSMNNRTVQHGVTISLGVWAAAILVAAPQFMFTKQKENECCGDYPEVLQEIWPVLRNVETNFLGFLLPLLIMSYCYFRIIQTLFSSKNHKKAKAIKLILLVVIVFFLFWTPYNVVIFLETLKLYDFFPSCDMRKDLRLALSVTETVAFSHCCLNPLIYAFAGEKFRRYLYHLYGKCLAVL

T2: Modified CX3CL1-CX3CR1 fusion followed by the Twin-Strep-Tag at the C terminus ( | human, UniProt P78423 25-100; P49238 1-315, G35C | I120^3.43L | L176^ECL2C | C221^ICL3S | M250^6.54V, pyroglutamate at residue 1 of CX3CL1 (pE1); disulfide between G35C of CX3CL1 and L176C of CX3CR1)
T2 construct: CX3CL1 chemokine domain, residues 1 to 76; numbers count on: the mature protein (pE1 is residue 1); 28-residue linker (14 × Gly-Ser); CX3CR1, human, residues 1 to 315, as in construct-1 with the additional L176C; A signal peptide before CX3CL1 is not described; also called construct-2; fused form of CX3CR1-CX3CL1 with a cross-linking disulfide bond; source: HighFive insect cells, coexpressed with …
T2 sequence: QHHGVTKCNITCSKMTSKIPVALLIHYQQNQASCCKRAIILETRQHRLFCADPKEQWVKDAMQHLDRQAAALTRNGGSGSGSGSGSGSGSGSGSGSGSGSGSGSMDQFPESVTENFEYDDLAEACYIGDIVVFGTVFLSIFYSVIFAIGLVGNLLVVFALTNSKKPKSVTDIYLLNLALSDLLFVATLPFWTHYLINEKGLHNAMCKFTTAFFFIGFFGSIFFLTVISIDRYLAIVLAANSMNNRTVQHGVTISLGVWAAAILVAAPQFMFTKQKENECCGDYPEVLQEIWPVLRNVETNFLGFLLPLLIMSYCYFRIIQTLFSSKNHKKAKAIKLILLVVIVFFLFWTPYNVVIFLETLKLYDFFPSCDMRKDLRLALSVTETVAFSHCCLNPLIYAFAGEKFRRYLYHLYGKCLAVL

B1: CX3CL1 (residues 1 to 76, G35C) as it stands in construct-2 (ligand, UniProt P78423 25-100, looked up)
chain: QHHGVTKCNITCSKMTSKIPVALLIHYQQNQASCCKRAIILETRQHRLFCADPKEQWVKDAMQHLDRQAAALTRNG
modifications: pyroglutamate at 1 (pE1)
notes: CX3CL1 chemokine domain, residues 1 to 76; numbers count on: the mature protein (pE1 is residue 1); Written alone for the pair CX3CL1 with CX3CR1; also called chemokine CX3CL1; source: HighFive insect cells, part of the fusion construct-2, purified as complex (Strep-Tactin, SEC)
B2: human dominant negative Gαi1 (DNGαi1) with S47C, G202T, G203A, E245A and A326S (natural protein)
chain: MGCTLSAEDKAAVERSKMIDRNLREDGEKAAREVKLLLLGAGESGKCTIVKQMKIIHEAGYSEEECKQYKAVVYSNTIQSIIAIIRAMGRLKIDFGDSARADDARQLFVLAGAAEEGFMTAELAGVIKRLWKDSGVQACFNRSREYQLNDSAAYYLNDLDRIAQPNYIPTQQDVLRTRVKTTGIVETHFTFKDLHFKMFDVTAQRSERKKWIHCFEGVTAIIFCVALSDYDLVLAEDEEMNRMHASMKLFDSICNNKWFTDTSIILFLNKKDLFEEKIKKSPLTICYPEYAGSNTYEEAAAYIQCQFEDLNKRKDTKEIYTHFTCSTDTKNVQFVFDAVTDVIIKNNLKDCGLF
notes: source: HighFive insect cells, coexpressed with the receptor and Gβ1/Gγ2, purified as complex (Strep-Tactin, SEC)
B3: Modified human CX3CR1 (residues 1 to 315) with three mutations (I120L, C221S, M250V) and a C-terminal Twin-Strep-tag (receptor, UniProt P49238 1-315, looked up)
chain: T1 sequence (looked up) with C176L
notes: CX3CR1, human, residues 1 to 315 (40 residues C316 to L355 truncated from the C terminus); also called construct-1; engineered construct; source: HighFive insect cells, coexpressed with DNGαi1 and Gβ1/Gγ2, purified as complex (Strep-Tactin, SEC); not shown: Twin-Strep-tag, C-terminal, kept

What was measured:
Details in all cases: both partners purified
[1] = biological target: T1, CX3CR1 (residues 1 to 315; I120L, …); experiment: cryo-EM structure; CX3CL1-bound CX3CR1-Gi1 complex; construct-2 (CX3CL1 fused to CX3CR1, disulfide G35C-L176C), DNGαi1 and Gβ1/Gγ2 coexpressed in HighFive cells and purified together (Strep-Tactin, SEC) in LMNG/CHS; 25 mM Hepes pH 7.5, 150 mM NaCl; apyrase treated
[2] = biological target: T2, Modified CX3CL1-CX3CR1 fusion followed …; experiment: as above
[3] = biological target: B2; experiment: cryo-EM structure; ligand-free CX3CR1-Gi1 complex; construct-1, DNGαi1 and Gβ1/Gγ2 coexpressed in HighFive cells and purified together (Strep-Tactin, SEC) in LMNG/GDN/CHS; 25 mM Hepes pH 7.5, 150 mM NaCl; apyrase treated

Binder: B1
binding result [1]: binds

Binder: B2
binding result [2]: binds

Binder: B3
binding result [3]: binds

Source: article PMC9242592, “Activation of the human chemokine receptor CX3CR1 regulated by cholesterol” (Science Advances, 2022)
